Where no end group is shown, it is not given here. [ ]: non-standard residue; d: D form. pY = N[C@@H](Cc1ccc(OP(=O)(O)O)cc1)C(=O)O
B1: MPL pY631 phosphopeptide (peptide)
peptide: LPLS[pY]WQQP
notes: MPL (TPO receptor), intracellular site Y631; also called TPOR pY631
B2: JAK2 pY813 phosphopeptide (12-mer) (peptide)
peptide: FTPD[pY]ELLTEND
notes: JAK2, stretch around Y813; also called WT pY813 peptide
B3: EPOR pY454 phosphopeptide (peptide)
peptide: PHLK[pY]LYLVVS
modifications: also: phosphotyrosine at 454 (Y5 or Y7)
notes: EPOR, intracellular site Y454
B4: JAK2 pY813 peptide mutant +1R (peptide)
chain: FTPD[pY]RLLTEND

Experiments:
[1] = target: T1, M. musculus LNK SH2 domain (residues 324–446), wild type (mouse, UniProt O09039 324-446); experiment: SPR; competition: biotinylated IL6ST pY757 peptide immobilised on a streptavidin chip; 0.1–0.5 μM WT LNK SH2 domain pre-incubated with phosphopeptide and flowed over; 10 mM HEPES pH 7.4, 150 mM NaCl, 3.4 mM EDTA, 0.005% Tween 20; response normalised to LNK only, IC50 fit; settings: both partners purified
T1 construct: LNK (SH2B3), mouse, SH2 domain with N-terminal helix, residues 324-446; vector pET-50b(+); also called WT LNK SH2; SH2B3 SH2 domain; source: E. coli (tuner (DE3), BL21(DE3) or C43), purified (His-Tag resin, TEV cleavage, SEC); not shown: NusA, N-terminal, cleaved

[2] = target: T1, M. musculus LNK SH2 domain (residues …); experiment: as above; settings: both partners purified; remark: listed apart in the source

T1 sequence (O09039 324-446): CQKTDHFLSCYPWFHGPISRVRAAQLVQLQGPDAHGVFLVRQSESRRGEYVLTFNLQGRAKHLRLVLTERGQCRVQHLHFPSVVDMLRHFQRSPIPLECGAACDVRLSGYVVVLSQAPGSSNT

Binder	IC50 [1] [µM]	IC50 [2] [µM]
B1	> 10	–
B2	0.138	0.06
B3	0.661	–
B4	–	> 5
